Literature values, collected in PMC7248566.

Biological target: Fibrinogen beta (Fgβ) (Homo sapiens) (UniProt P02675)

In the case of SdrG (from UniProt Q9KI13), the Kd is listed as 350 nM.
